This note sets out measurements from publication PMC10074443.

Series [1] has as its system C[C@@H](N)[C@H](N)C(=O)O. Description: continuous MesG/hydroxylamine coupled adenylation assay. The settings on record: co-substrate ATP; hydroxylamine as acceptor. Format: biochemical, Paraburkholderia acidicola.
Series [2] concerns N[C@H](CF)[C@H](N)C(=O)O. Described as above. The settings on record: co-substrate ATP; hydroxylamine as acceptor. The format is biochemical, Paraburkholderia acidicola.

One may read the Km as the substrate concentration at which the rate is half of its maximum. For “A3 (adenylation domain of SulM) (Paraburkholderia acidicola)”, the Km in series [1] is 1.08 mM; in series [2], 20.7 mM.
